# Reference: patent US20070009442A1, “Macrocyclic metal complexes and their use for the production of conjugates with biomolecules” (priority 2001, published 2007)
# Experiments:
# [1] = Relaxivity of the conjugates in plasma; type: physicochemical; conditions: +37° C., 20 MHz, relaxivity per mol of gadolinium calculated from the measured values
# Procedure: (§1) As comparison substances, Gd-DTPA (1) with the formula: [drawing 16] and Gd-GlyMeDOTA (2) with the formula: [drawing 17] which were reacted in each case with bovine serum albumin (BSA), were used.
# (§2) The measurements were made in each case in aqueous solution and in plasma at +37° C. and a frequency of 20 MHz. The results are summarized in Table 2 below, whereby the indicated relaxivities per mol of gadolinium were calculated from the measured values: […]
# [2] = Relaxivity of the conjugates in aqueous solution; type: physicochemical; conditions: +37° C., 20 MHz, relaxivity per mol of gadolinium calculated from the measured values
# Procedure: as §1, §2
substance,measurement,setting,value
Gd-GlyMeDOTA [Vergleichssubstanz 2],R1 (Plasma),[1],20.8 L/mmol/s
same,R1 (H2O),[2],18.3 L/mmol/s
